Patent US20100130424A1 (Janssen / Centocor, published 2010)
Where a chain is given by its changes, count along the chain named. Values joined by “and” are separate entries in the source; they are usually repeats but may differ in a detail not shown here. Equal values may be shown once. Read-outs that look alike come from different tables or passages of the source. Blank lines part the entries; values can stand above or below the molecule they belong to. No end group written: not given here.

How the values were obtained:
[1] = target: T1, human CRH receptor type 2 (human, UniProt Q13324 1-411); assay: radioligand competition, [125I]-anti-sauvagine-30, membranes of h-CRHR2 SK-N-MC cells
T1 sequence (looked up): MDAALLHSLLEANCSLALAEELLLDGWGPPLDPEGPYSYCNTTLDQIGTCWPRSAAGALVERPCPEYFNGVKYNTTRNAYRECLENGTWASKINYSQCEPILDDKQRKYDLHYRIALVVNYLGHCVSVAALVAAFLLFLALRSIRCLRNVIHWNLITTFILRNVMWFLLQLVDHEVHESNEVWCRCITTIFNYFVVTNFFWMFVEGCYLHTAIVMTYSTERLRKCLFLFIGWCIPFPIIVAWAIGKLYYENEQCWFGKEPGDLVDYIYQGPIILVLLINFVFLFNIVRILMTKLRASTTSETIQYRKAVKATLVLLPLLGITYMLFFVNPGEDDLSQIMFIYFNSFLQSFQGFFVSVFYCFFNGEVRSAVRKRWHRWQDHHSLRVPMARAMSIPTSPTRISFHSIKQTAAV

[2] = target: T1, human CRH receptor type 2; assay: cell-based or functional assay
[3] = target: T1, human CRH receptor type 2; assay: cell-based or functional assay; remark: listed apart in the source
[4] = target: T1, human CRH receptor type 2; assay: cell-based or functional assay; remark: listed apart in the source
[5] = target: T2, human CRH receptor type 1 (human, UniProt P34998 24-415); assay: cell-based or functional assay
T2 sequence (looked up): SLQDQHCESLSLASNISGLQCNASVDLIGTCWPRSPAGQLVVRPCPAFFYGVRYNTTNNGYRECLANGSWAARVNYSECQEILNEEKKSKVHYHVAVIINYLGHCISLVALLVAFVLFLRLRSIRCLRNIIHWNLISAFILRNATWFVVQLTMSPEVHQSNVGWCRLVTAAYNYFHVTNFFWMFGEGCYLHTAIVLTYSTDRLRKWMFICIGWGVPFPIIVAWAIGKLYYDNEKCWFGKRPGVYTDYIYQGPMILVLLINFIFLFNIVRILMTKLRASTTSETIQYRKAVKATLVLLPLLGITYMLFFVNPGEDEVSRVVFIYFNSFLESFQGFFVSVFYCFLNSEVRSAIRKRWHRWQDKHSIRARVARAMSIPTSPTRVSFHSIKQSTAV

[6] = target: T1, human CRH receptor type 2; assay: cell-based or functional assay; remark: listed apart in the source
[7] = target: T3, human CRH receptor type 1 (human), P34998; assay: radioligand competition, [125I]-(Tyr0)-sauvagine, CRHR1 membrane assay; settings: remark: other sources report otherwise
T3 chain: T2 sequence (looked up)

[8] = target: T1, human CRH receptor type 2; assay: inferred from the test as antagonist at 10 µM, cAMP assay on h-CRHR2 SK-N-MC cells
[9] = target: T1, human CRH receptor type 2; assay: cell-based or functional assay; remark: listed apart in the source
[10] = target: T2, human CRH receptor type 1; assay: radioligand competition, [125I]-(Tyr0)-sauvagine, CRHR1 membrane assay
[11] = target: T1, human CRH receptor type 2; assay: radioligand competition, [125I]-anti-sauvagine-30, membranes of h-CRHR2 SK-N-MC cells; biphasic curve
[12] = scale: % of the maximum response obtained to h-SCP

B1: CRHR2 peptide agonist with shortened amino acid sequence, 39aa, SEQ ID NO: 107 (peptide)
peptide: KFTLSLDVPTNIMNLLFNIAKAKNLRAQAAANAHLMAQI-NH2
pA50, cAMP [3]: 9.25 -log M | αmax, cAMP [3]: 111 % of the maximum response to h-SCP

B4: CRHR2 peptide agonist with shortened amino acid sequence, 35aa, SEQ ID NO: 110 (peptide)
peptide: SLDVPTNIMNLLFNIAKAKNLRAQAAANAHLMAQI-NH2
KA (receptor affinity, in µM) [8]: > 10 µM

B5: CRHR2 peptide agonist with shortened amino acid sequence, 37aa, SEQ ID NO: 108 (peptide)
peptide: TLSLDVPTNIMNLLFNIAKAKNLRAQAAANAHLMAQI-NH2
pA50, cAMP [3]: 8.49 -log M | αmax, cAMP [3]: 106 % of the maximum response to h-SCP

B6: Cys-variant CRHR2 peptide agonist, SEQ ID NO: 6 (peptide)
peptide: TKFTCSLDVPTNIMNLLFNIAKAKNLRAQAAANAHLMAQI-NH2
Log DR against h-SCP, cAMP [9]: 0.61 log10 ratio | pA50, cAMP [9]: 9.07 -log M

B7: Cys-variant CRHR2 peptide agonist, SEQ ID NO: 9 (peptide)
peptide: TKFTLSLCVPTNIMNLLFNIAKAKNLRAQAAANAHLMAQI-NH2
Log DR against h-SCP, cAMP [9]: 1.89 log10 ratio | pA50, cAMP [9]: 7.8 -log M

B8: Pegylated Cys-variant CRHR2 peptide agonist (NES linker, PEG about 20 kDa), SEQ ID NO: 56 (peptide)
peptide: TCFTLSLDVPTNIMNLLFNIAKAKNLRAQAAANAHLMAQI
modifications: NES-PEG (about 20 kDa) on Cys 2; C-terminal amide
Log DR against h-SCP, cAMP [9]: ~2.34 log10 ratio | pA50, cAMP [9]: ~7.2 -log M

B9: Pegylated Cys-variant CRHR2 peptide agonist (NES linker, PEG about 20 kDa), SEQ ID NO: 58 (peptide)
peptide: B8 peptide with C2K, T4C
modifications: NES-PEG (about 20 kDa) on Cys 4; C-terminal amide
Log DR against h-SCP, cAMP [9]: ~2.4 log10 ratio | pA50, cAMP [9]: ~7.14 -log M

B10: Pegylated Cys-variant CRHR2 peptide agonist (NES linker, PEG about 20 kDa), SEQ ID NO: 60 (peptide)
peptide: B8 peptide with C2K, S6C
modifications: NES-PEG (about 20 kDa) on Cys 6; C-terminal amide
Log DR against h-SCP, cAMP [9]: > 3.22 log10 ratio | pA50, cAMP [9]: ~6.32 -log M

B15: Pegylated Cys-variant CRHR2 peptide agonist (NES linker, PEG about 20 kDa), SEQ ID NO: 59 (peptide)
peptide: B8 peptide with C2K, L5C
modifications: NES-PEG (about 20 kDa) on Cys 5; C-terminal amide
Log DR against h-SCP, cAMP [9]: ~2.32 log10 ratio | pA50, cAMP [9]: ~7.22 -log M

B17: Pegylated Cys-variant CRHR2 peptide agonist (NES linker, PEG about 20 kDa), SEQ ID NO: 57 (peptide)
peptide: B8 peptide with C2K, F3C
modifications: NES-PEG (about 20 kDa) on Cys 3; C-terminal amide
Log DR against h-SCP, cAMP [9]: ~1.9 log10 ratio | pA50, cAMP [9]: ~7.64 -log M

B18: Human stresscopin with amidated C-terminus (peptide)
peptide: TKFTLSLDVPTNIMNLLFNIAKAKNLRAQAAANAHLMAQI-NH2
notes: 40 amino acids; also called h-SCP
pKI [1]: 5.71 -log M | pA50, cAMP [5]: < 5 -log M | pKI [10]: 4.6 -log M | A50, cAMP [6]: 0.4 nM | control pA50, cAMP [6]: 9.47 to 9.74 -log M | pA50, cAMP [6]: 9.4 -log M | pA50, cAMP (one batch) [6]: 9.41 -log M | αmax, cAMP (% of the maximum response to h-SCP) [6]: 98.7 | αmax, cAMP [6, 12]: 100 | pIC50 (low affinity state) [11]: 6.6 -log M

B19: Cys-variant CRHR2 peptide agonist, SEQ ID NO: 11 (peptide)
peptide: TKFTLSLDVCTNIMNLLFNIAKAKNLRAQAAANAHLMAQI-NH2
Log DR against h-SCP, cAMP [9]: 0.82 log10 ratio | pA50, cAMP [9]: 8.76 -log M

B21: Cys-variant CRHR2 peptide agonist, SEQ ID NO: 5 (peptide)
peptide: TKFCLSLDVPTNIMNLLFNIAKAKNLRAQAAANAHLMAQI-NH2
Log DR against h-SCP, cAMP [9]: 0.76 log10 ratio | pA50, cAMP [9]: 8.93 -log M

B22: Cys-variant CRHR2 peptide agonist, SEQ ID NO: 8 (peptide)
peptide: TKFTLSCDVPTNIMNLLFNIAKAKNLRAQAAANAHLMAQI-NH2
Log DR against h-SCP, cAMP [9]: 2.86 log10 ratio | pA50, cAMP [9]: ~6.82 -log M

B23: Cys-variant CRHR2 peptide agonist, SEQ ID NO: 7 (peptide)
peptide: TKFTLCLDVPTNIMNLLFNIAKAKNLRAQAAANAHLMAQI-NH2
Log DR against h-SCP, cAMP [9]: 2.08 log10 ratio | pA50, cAMP [9]: 7.6 -log M

B25: CRHR2 peptide agonist with shortened amino acid sequence, 33aa, SEQ ID NO: 112 (peptide)
peptide: DVPTNIMNLLFNIAKAKNLRAQAAANAHLMAQI-NH2
KA (receptor affinity, in µM) [8]: > 10 µM

B26: CRHR2 peptide agonist with shortened amino acid sequence, 34aa, SEQ ID NO: 111 (peptide)
peptide: LDVPTNIMNLLFNIAKAKNLRAQAAANAHLMAQI-NH2
KA (receptor affinity, in µM) [8]: > 10 µM

B27: Cys-variant CRHR2 peptide agonist, SEQ ID NO: 10 (peptide)
peptide: TKFTLSLDCPTNIMNLLFNIAKAKNLRAQAAANAHLMAQI-NH2
Log DR against h-SCP, cAMP [9]: 1.3 log10 ratio | pA50, cAMP [9]: 8.28 -log M

B28: Cys-variant CRHR2 peptide agonist, SEQ ID NO: 12 (peptide)
peptide: TKFTLSLDVPCNIMNLLFNIAKAKNLRAQAAANAHLMAQI-NH2
Log DR against h-SCP, cAMP [9]: 1.72 log10 ratio | pA50, cAMP [9]: 7.86 -log M

B29: Cys-variant CRHR2 peptide agonist, SEQ ID NO: 4 (peptide)
peptide: TKCTLSLDVPTNIMNLLFNIAKAKNLRAQAAANAHLMAQI-NH2
Log DR against h-SCP, cAMP [9]: 1.03 log10 ratio | pA50, cAMP [9]: 8.65 -log M

Now from value to molecule:

pKI [1]: 7.57 -log M | pA50, cAMP [2]: 9.32 -log M and 9.58 -log M and 9.23 -log M | αmax, cAMP [2]: 114 and 109 and 98.6
Molecule: h-SRP (peptide)

pKI [1]: 7.74 -log M | pA50, cAMP [2]: 9.51 -log M | αmax, cAMP [2]: 115 and 129 | αmax, cAMP [2, 12]: 117
Molecule: human urocortin 2 (peptide)

pA50, cAMP [3]: 7.1 -log M | αmax, cAMP [3]: 107 % of the maximum response to h-SCP | potency against amidated h-SCP, cAMP [4]: ~200 fold less potent
B2: non-amidated h-SCP (peptide)
peptide: TKFTLSLDVPTNIMNLLFNIAKAKNLRAQAAANAHLMAQI-OH

pKI [1]: 6.49 -log M | pA50, cAMP [5]: < 5 -log M | pA50, cAMP [6]: 9.26 -log M | αmax, cAMP [6]: 102 | pKI [7]: 4.96 -log M
B3: human Urocortin III (peptide)
peptide: FTLSLDVPTNIMNLLFNIAKAKNLRAQAAANAHLMAQI-NH2

Log DR against h-SCP, cAMP [9]: > 3.48 log10 ratio | pA50, cAMP [9]: ~6.06 -log M
B11: Pegylated Cys-variant CRHR2 peptide agonist (NES linker, PEG about 20 kDa), SEQ ID NO: 62 (peptide)
peptide: B8 peptide with C2K, D8C
modifications: NES-PEG (about 20 kDa) on Cys 8; C-terminal amide

Log DR against h-SCP, cAMP [9]: > 3.32 log10 ratio | pA50, cAMP [9]: ~6.22 -log M
B12: Pegylated Cys-variant CRHR2 peptide agonist (NES linker, PEG about 20 kDa), SEQ ID NO: 61 (peptide)
peptide: B8 peptide with C2K, L7C
modifications: NES-PEG (about 20 kDa) on Cys 7; C-terminal amide

Log DR against h-SCP, cAMP [9]: ~2.75 log10 ratio | pA50, cAMP [9]: ~6.82 -log M
B13: Pegylated Cys-variant CRHR2 peptide agonist (NES linker, PEG about 20 kDa), SEQ ID NO: 65 (peptide)
peptide: B8 peptide with C2K, T11C
modifications: NES-PEG (about 20 kDa) on Cys 11; C-terminal amide

Log DR against h-SCP, cAMP [9]: ~2.12 log10 ratio | pA50, cAMP [9]: ~7.45 -log M
B14: Pegylated Cys-variant CRHR2 peptide agonist (NES linker, PEG about 20 kDa), SEQ ID NO: 63 (peptide)
peptide: B8 peptide with C2K, V9C
modifications: NES-PEG (about 20 kDa) on Cys 9; C-terminal amide

Log DR against h-SCP, cAMP [9]: ~2.59 log10 ratio | pA50, cAMP [9]: ~6.98 -log M
B16: Pegylated Cys-variant CRHR2 peptide agonist (NES linker, PEG about 20 kDa), SEQ ID NO: 64 (peptide)
peptide: B8 peptide with C2K, P10C
modifications: NES-PEG (about 20 kDa) on Cys 10; C-terminal amide

pKI [1]: 7.78 -log M | pKI [10]: 5.81 -log M | pA2 against h-SCP, cAMP [6]: 7.82 -log M
B20: anti-sauvagine-30 (peptide)
peptide: FHLLRKMIEIEKQEKEKQQAANNRLLLDTI-NH2
notes: selective CRHR2 antagonist; also called SV30; CRHR antagonist peptide

pKI [1]: 8.51 -log M | pA50, cAMP [5]: 9.19 -log M | pA50, cAMP [2]: 9.08 -log M | αmax, cAMP [2]: 110
B24: r-UCN1 (peptide)
peptide: DDPPLSIDLTFHLLRTLLELARTQSQRERAEQNRIIFDSV-NH2
